According to US20260216058A1, “TRACE ELEMENT COMPOSITION, PREPARATION METHOD THEREFOR, AND USE THEREOF” (BEIJING ZANGWEIXINKANG PHARMACEUTICAL R&D CO., LTD., priority 2023, published 2026):

Tested on: Hartley guinea pigs
Experiment: Systemic active allergic reaction test in guinea pigs
Assay type: in vivo, guinea pig
Settings: 40 mg/mL
Description: Systemic active allergic reaction test in guinea pigs: Hartley guinea pigs, SPF grade, source: Beijing Vital River Laboratory Animal Technology Co., Ltd., animal production license No.: SCXK (JING) 2016-0011, test animal certification No.: No. 110011201110221326, issuer: Beijing Science and Technology Commission, age at the start of administration: 5-6 weeks.
Guinea pigs were sensitized by intraperitoneal injection of the sample of Example 2 and Addaven every other day for three consecutive days. In the allergic reaction test, 0.9% sodium chloride injection (Lot No.: 6B20060706, Shandong Qidu Pharmaceutical Co., Ltd.) was selected as the compatibility solution. Test sample low-dose group was administered with the clinically intended concentration of the test sample solution, and test sample high-dose group was administered with twice the concentration of the test sample solution. The administration volume was 0.5 mL/animal for each group. On the 14th and 21st days after the last sensitization, twice the sensitization dose of the product was intravenously injected for irritation, respectively.
Negative control group: 0.9% sodium chloride injection; […]

In the case of bovine serum albumin, the allergic reactions (irritation on the 14th day after the last sensitization) is reported as “strongly positive to extremely strong positive” and the allergic reactions (irritation on the 21st day after the last sensitization) is reported as “strongly positive to extremely strong positive”.
